Test results: US20160090637A1 (published 2016)

Biological target: T1, IL-10R1 S138G homozygous mutant on primary B-CLL cells (human, UniProt Q13651 22-578)
T1 construct: Endogenous receptor on purified B-CLL cells of patients homozygous (GG) for the mutation; also called S159G of the IL-10R1 precursor; GG homozygous mutant
T1 sequence: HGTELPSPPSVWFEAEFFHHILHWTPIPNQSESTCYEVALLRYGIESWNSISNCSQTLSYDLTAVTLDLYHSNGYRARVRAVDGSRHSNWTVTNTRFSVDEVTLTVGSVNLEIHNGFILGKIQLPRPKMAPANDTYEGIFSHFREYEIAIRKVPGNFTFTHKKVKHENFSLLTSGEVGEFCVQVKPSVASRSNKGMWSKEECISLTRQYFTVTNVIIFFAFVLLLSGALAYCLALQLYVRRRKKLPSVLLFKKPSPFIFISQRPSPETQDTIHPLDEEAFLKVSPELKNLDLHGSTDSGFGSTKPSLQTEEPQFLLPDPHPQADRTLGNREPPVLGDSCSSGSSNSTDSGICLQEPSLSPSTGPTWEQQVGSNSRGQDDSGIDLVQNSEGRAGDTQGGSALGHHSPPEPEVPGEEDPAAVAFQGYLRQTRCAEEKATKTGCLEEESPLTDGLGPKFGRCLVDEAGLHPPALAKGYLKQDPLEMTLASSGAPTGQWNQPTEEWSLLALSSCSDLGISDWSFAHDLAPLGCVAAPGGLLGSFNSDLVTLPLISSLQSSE
Assay: flow cytometry, biotinylated IL-10 plus avidin-FITC on primary B-CLL cells; weaker than on wild-type cells
Protocol: IL-10 binding with B-CLL cells was determined using Flurokine® Biotinylated Human Interleukin 10 Kit (R&D Systems) per the protocol. 25 μl (1×10⁵) purified B-CLL cells were incubated with 10 μl biotinylated negative control reagents or biotinylated IL-10 for 1-hour at 2-8° C., then incubated with 10 μl of avidin-FITC for a further 30 minutes at 2-8° C. in the dark. Wash the cells twice with 2 ml of 1×RDF buffer 2 times. Add 200 μl 1×RDF buffer into each tube and do flow cytometry analysis.

B1: Biotinylated Human Interleukin 10 (Flurokine kit, R&D Systems) (ligand, UniProt P22301 19-178, looked up)
chain: SPGQGTQSENSCTHFPGNLPNMLRDLRDAFSRVKTFFQMKDQLDNLLLKESLLEDFKGYLGCQALSEMIQFYLEEVMPQAENQDPDIKAHVNSLGENLKTLRLRLRRCHRFLPCENKSKAVEQVKNAFNKLQEKGIYKAMSEFDIFINYIEAYMTMKIRN
modifications: biotinylated (sites not given) in the binding assay; unlabelled rh-IL-10 in the culture assays
notes: The STAT assays used rh-IL-10 (R&D Systems) at 10 ng/ml; also called IL-10; rh-IL-10
  binding result: binds
